The target in test [1] is T1, caCDH19(1-43)::FLAG::caCDH19(44-87)::rhCDH19(89-114)::caCDH19(115-770), on 293T cells (rhesus macaque/dog chimera).
T1 construct: also called rh EC1b (dog backbone)
T1 chain: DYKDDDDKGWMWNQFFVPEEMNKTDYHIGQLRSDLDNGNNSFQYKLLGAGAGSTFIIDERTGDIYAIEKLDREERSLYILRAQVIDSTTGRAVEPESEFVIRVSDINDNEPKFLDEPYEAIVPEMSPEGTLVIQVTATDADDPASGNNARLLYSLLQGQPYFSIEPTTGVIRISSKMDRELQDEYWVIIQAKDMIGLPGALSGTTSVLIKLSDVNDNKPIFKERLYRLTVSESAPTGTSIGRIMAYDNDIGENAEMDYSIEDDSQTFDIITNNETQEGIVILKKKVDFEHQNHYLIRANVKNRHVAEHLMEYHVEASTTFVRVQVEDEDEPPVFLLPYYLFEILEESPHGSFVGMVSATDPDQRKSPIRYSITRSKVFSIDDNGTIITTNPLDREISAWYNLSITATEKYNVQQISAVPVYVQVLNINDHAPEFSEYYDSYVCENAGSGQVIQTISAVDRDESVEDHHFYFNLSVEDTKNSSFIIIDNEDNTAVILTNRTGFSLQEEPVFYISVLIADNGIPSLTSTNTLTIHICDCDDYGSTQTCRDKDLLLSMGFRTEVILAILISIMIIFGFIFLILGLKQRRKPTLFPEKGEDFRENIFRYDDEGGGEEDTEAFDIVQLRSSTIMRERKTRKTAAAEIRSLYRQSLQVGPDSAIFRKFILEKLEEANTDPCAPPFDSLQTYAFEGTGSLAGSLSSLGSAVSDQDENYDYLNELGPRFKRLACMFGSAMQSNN
The test is described as follows: FACS, transfected 293T.
Description: The following binding assay was completed in presence of 2 mM CaCl2. […] Cells were then washed one time and the amount of cell associated Alexa647-labelled Ab was quantitated by flow cytometry. The experiments included mock transfected controls.

A further test deals with T2, Human Cadherin-19 (human, UniProt Q9H159 44-772).
T2 construct: Residues 1-43 are named as the native leader in the construct designations and are left out; also called human CDH19; huCDH19
The test is described as follows: FACS, endogenous CDH19 on CHL-1/Colo699.

For test [2], the target named is T3, muCDH19(44-139)::huCDH19(142-249)::muCDH19(248-770), Flag-tagged, on 293T cells (human/mouse chimera).
T3 construct: also called Hu EC2; C137913
T3 chain: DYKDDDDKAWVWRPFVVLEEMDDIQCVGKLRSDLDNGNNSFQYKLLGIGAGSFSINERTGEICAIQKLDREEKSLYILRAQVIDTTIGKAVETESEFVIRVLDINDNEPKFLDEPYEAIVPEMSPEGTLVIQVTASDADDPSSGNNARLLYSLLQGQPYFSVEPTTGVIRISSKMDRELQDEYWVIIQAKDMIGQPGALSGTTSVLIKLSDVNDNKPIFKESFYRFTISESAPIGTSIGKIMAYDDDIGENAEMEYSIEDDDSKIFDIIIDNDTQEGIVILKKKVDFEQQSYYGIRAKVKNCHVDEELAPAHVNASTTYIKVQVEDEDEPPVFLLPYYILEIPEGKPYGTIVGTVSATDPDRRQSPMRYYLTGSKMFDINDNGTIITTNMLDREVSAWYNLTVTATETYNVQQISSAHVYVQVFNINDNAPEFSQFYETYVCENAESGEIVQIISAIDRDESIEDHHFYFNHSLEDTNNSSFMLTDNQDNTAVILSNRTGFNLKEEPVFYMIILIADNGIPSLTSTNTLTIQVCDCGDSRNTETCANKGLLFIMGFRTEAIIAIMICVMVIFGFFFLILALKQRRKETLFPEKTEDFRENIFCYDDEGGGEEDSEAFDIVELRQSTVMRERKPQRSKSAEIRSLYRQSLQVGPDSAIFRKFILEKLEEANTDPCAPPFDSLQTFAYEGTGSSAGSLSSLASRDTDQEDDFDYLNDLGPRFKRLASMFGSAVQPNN
Nature of the test: FACS, transfected 293T. (Flow cytometry measures light scatter and fluorescence of single cells or particles in a stream.)
Excerpt: (§1) The experiment included assaying the anti-CDH19 antibodies against mouse Cadherin19 to determine suitability for binning on these human/mouse chimeras.

The target of test [3] is T4, muCDH19(44-362)::huCDH19(365-772), Flag-tagged, on 293T cells (human/mouse chimera).
T4 construct: also called Hu EC4-5; C137917
T4 chain: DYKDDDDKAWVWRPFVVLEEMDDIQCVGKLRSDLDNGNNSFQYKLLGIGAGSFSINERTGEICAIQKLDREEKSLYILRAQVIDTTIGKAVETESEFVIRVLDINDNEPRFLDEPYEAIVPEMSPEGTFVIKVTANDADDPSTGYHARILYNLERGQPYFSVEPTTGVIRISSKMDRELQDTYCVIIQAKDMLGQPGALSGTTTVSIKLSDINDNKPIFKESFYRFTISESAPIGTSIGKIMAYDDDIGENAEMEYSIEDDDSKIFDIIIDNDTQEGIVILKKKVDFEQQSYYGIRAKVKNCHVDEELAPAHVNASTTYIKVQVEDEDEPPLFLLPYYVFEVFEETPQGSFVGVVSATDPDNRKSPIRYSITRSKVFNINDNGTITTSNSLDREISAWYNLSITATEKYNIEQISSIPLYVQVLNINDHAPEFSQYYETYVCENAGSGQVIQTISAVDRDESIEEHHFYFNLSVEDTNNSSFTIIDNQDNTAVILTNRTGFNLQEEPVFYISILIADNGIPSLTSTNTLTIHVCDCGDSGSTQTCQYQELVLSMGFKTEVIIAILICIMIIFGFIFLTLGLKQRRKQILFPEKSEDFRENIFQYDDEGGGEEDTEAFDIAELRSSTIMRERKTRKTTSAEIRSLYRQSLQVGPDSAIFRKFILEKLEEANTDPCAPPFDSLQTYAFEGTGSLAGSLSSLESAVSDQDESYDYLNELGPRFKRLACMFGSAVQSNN
Nature of the test: FACS, transfected 293T.
Excerpt: as §1

Description for Human Cadherin-19: FACS binding assays were performed to evaluate the binding of the anti-Cadherin-19 receptor specific antibodies to endogenous Cadherin-19 receptor expressed on the CHL-1 tumor cell lines.
FACs assays were performed by incubating hybridoma supernatants with 10,000 to 25,000 cells in PBS/2% Fetal bovine serum/2 mM Calcium Chloride at 4° C. for one hour followed by two washes with PBS/2% Fetal bovine serum/2 mM Calcium Chloride. Cells were then treated with florochrome-labeled secondary antibodies at 4° C. followed by one wash. The cells were resuspended in 50 μl of PBS/2% FBS and antibody binding was analyzed using a FACSCalibur™ instrument.

B1: hu anti-<huCDH19> 4A9 VH::huIgG1z / 4A9 VL::huLLC-C1 (Ab ID 13589) (antibody, V domains shown)
VH: QVQLQESGPGLVKPSETLSLTCTVSGGSISGYYWSWIRQPPGKGLEWFAYFSYSGSTNYNPSLKSRVTLSVDTSKNQFSLKLSSVTAADTAVYYCARNWAFHFDFWGQGTLVTVSS
VL: QSVLTQPPSVSGAPGQRVTISCTGSSSNIGTGYAVHWYQQFPGTAPKLLIYGNNNRPSGVPDRFSGSKSGTSASLAITGLQAEDEADYYCQSYDSRLSGWVFGGGTKLTVLG
notes: Recombinant fully human IgG1
In the case of B1, the binding result in test [1] was “no binding (tested: 5 ug/ml)”; with Human Cadherin-19, “binds”.

B2: anti-CDH19 antibody 2G6 (Ab ID 13588) (antibody, human IgG1, lambda, V domains shown)
VH: QVQLVESGGGVVQPGRSLRLSCAASGFTFSSYGMHWVRQAPGKGLEWVAFIWYDGSNKYYADSVKDRFTISRDNSKNTLYLQMKSLRAEDTAVYYCARRAGIIGTIGYYYGMDVWGQGTTVTVSS
VL: SYELTQPPSVSVSPGQTASITCSGDRLGEKYTCWYQQRPGQSPLLVIYQDTKRPSGIPERFSGSNSGNTATLTISGTQAMDEADYYCQAWDSSTVVFGGGTKLTVLG
Consider B2, for which the binding result in test [2] and in test [3] was “binds” each time.

B3: hu anti-<huCDH19> 26D1.1 VH::huIgG1z / 26D1.1 VL::huLLC-C2 (Ab ID 13882) (antibody, V domains shown)
VH: QVQLVQSGAEVKKPGASVKVSCKASRYTFTSYYMSWVRQAPGQGLEWMGIIHPSGGDTTYAQKFQGRVTMTGDTSTSTVYMELSSLRSEDTAVYYCARGGIKLWLHFDYWGQGTLVTVSS
VL: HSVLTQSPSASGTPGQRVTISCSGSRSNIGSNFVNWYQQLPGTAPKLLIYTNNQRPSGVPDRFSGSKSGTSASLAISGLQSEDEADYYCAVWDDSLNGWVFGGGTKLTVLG
As to B3, the binding result (in test [1]; in the test with Human Cadherin-19) was “binds” throughout.
